Reference: patent US20220281980A1 (Bristol-Myers Squibb, published 2022)
“And” between values parts separate entries of the source, which are not always exact repeats. Equal entries are not always repeated. One block for each binder: values may come before it.

Columns and labels:
[1] = target: T1, recombinant soluble human MICA*008 antigen (human, UniProt Q29983 24-307); assay: SPR (Biacore 3000), antibody captured on Protein G chip, huMICA-his analyte; power of ten not given
T1 construct: also called huIMICA-his allele *008; recombinant soluble MICA (allele 8)
T1 chain: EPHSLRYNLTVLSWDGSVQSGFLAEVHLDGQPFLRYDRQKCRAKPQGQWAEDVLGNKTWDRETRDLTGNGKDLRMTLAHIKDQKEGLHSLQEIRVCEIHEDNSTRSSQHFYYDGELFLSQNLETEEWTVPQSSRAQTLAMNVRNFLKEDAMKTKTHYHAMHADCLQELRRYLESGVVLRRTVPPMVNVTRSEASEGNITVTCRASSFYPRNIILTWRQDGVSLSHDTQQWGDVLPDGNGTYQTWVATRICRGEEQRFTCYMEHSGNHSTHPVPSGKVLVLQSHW
Experimental: (§1) Kinetics and affinity of anti-MICA/B antibodies MICA.2, 19G6, 16A5, and 71C2 towards human MICA alleles (huIMICA-his allele *002, *004, *008, and *009) were also determined on a BIACORE 3000® instrument using the following conditions: [0571] Running Buffer: HES-EP running buffer [0572] Chip: CM5 Protein G Chip Fc1: Blank. Fc2-4: ˜200Rus [0573] Ab: 5 ug/mL, 10 uL @ 10 uL/min [0574] Ag binding: 5 min association, 7 min dissociation @ 25 uL/min, [0575] Regeneration: Glycine 1.7, 10 uL @ 100 uL/min followed by 60s wash by HES-EP

[2] = target: T2, recombinant soluble human MICA*002 antigen (human, UniProt Q29983 24-307); assay: as above
T2 construct: also called huIMICA-his allele *002
T2 chain: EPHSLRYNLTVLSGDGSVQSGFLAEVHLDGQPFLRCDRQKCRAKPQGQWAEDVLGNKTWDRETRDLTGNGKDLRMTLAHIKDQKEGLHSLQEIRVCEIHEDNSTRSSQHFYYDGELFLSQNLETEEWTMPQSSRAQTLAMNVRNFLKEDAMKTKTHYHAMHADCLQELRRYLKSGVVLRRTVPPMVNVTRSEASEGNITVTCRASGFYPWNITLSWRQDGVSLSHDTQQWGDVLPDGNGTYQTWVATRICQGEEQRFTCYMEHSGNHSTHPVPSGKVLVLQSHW
Experimental: as §1

[3] = target: T3, recombinant soluble human MICA*009 antigen (human, UniProt Q29983 24-307); assay: as above
T3 construct: also called huIMICA-his allele *009
T3 chain: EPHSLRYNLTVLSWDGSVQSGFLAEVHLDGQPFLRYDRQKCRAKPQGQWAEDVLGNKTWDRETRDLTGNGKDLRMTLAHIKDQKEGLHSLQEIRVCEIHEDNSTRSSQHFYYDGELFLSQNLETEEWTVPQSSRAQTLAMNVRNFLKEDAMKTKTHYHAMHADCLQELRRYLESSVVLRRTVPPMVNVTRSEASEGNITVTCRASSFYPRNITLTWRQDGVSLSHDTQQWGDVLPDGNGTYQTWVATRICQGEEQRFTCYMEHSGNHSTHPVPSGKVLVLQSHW
Experimental: as §1

[4] = target: T4, recombinant soluble human MICA*004 antigen (human, UniProt Q29983 24-307); assay: as above
T4 construct: also called huIMICA-his allele *004
T4 chain: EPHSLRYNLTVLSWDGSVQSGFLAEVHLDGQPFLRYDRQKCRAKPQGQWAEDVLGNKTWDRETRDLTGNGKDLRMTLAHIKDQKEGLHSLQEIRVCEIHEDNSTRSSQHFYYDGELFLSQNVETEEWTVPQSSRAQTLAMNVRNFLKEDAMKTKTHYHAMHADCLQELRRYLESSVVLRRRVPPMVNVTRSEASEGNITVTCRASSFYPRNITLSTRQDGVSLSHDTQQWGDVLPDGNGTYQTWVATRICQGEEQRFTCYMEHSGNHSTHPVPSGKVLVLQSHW
Experimental: as §1

[5] = target: T1, recombinant soluble human MICA*008 …; assay: SPR (Biacore 3000), antibody captured on Protein G chip, huMICA-his analyte
Experimental: as §1

[6] = target: T2, recombinant soluble human MICA*002 …; assay: as above
Experimental: as §1

[7] = target: T3, recombinant soluble human MICA*009 …; assay: as above
Experimental: as §1

[8] = target: T4, recombinant soluble human MICA*004 …; assay: as above
Experimental: as §1

[9] = target: T5, cynomolgus monkey MICA/B clone #6 expressed on CHO cells (cynomolgus monkey); assay: flow cytometry, transfected CHO cells
T5 construct: whole, on cells; also called cyno#6; CHO-cyno MICA clone #6

[10] = target: T6, cynomolgus monkey MICA/B clone #4 expressed on CHO cells (cynomolgus monkey); assay: flow cytometry, transfected CHO cells
T6 construct: whole, on cells; also called cyno#4; CHO-cyno MICA clone #4

[11] = target: T7, human MICB expressed on transduced cells (human, UniProt Q29980 23-382); assay: flow cytometry, transfected CHO cells
T7 construct: also called MICB*005
T7 chain: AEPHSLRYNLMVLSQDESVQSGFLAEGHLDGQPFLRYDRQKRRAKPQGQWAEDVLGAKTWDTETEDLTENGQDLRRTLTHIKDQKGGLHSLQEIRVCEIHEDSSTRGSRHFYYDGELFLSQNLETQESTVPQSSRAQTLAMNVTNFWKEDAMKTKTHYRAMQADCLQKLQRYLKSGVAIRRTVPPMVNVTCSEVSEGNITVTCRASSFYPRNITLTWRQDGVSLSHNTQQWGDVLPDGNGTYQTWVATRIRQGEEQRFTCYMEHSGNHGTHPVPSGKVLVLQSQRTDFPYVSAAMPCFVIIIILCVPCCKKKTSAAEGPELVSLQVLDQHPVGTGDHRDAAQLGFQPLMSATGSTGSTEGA

[12] = target: T1, recombinant soluble human MICA*008 …; assay: BLI (Octet) sandwich binning on soluble MICA allele 8, row antibody captured; competitor (second antibody): MICA.39
Experimental: (§2) The binning experiments were performed on an Octet HTX instrument at 25° C. in HEPES buffered saline (10 mM HEPES pH 7.4, 150 mM NaCl, 0.05% v/v surfactant P20, and 1 mg/mL BSA). Anti-MICA/B antibodies and NKG2D-mFc were captured on anti-Fc tips and remaining capture sites were blocked with an excess of negative control IgG. Recombinant soluble MICA (allele 8) was bound and subsequent binding (“sandwiching”) of anti-MICA/B antibodies was tested.

[13] = target: T1, recombinant soluble human MICA*008 …; assay: BLI (Octet) sandwich binning on soluble MICA allele 8, row antibody captured; competitor (second antibody): MICA.38
Experimental: as §2

[14] = target: T1, recombinant soluble human MICA*008 …; assay: BLI (Octet) sandwich binning on soluble MICA allele 8, row antibody captured; competitor (second antibody): MICA.2
Experimental: as §2

[15] = target: T1, recombinant soluble human MICA*008 …; assay: BLI (Octet) sandwich binning on soluble MICA allele 8, row antibody captured; competitor (second antibody): MICA.36
Experimental: as §2

[16] = target: T1, recombinant soluble human MICA*008 …; assay: SPR (Biacore T200, 37 C), antibody captured on anti-human Fc, antigen 500 and 50 nM
Experimental: (§3) Anti-MICA/B antibodies were captured to α-human Fc surfaces. MICA allele antigens were injected at high and low nanomolar concentrations (500 nM and 50 nM, except indicated otherwise). The results for antibodies MICA.36 and MICA.38 (MICA.2 with a Ser inserted between residues 95 and 96 in the light chain) are shown in Table 2 below.

[17] = target: T2, recombinant soluble human MICA*002 …; assay: as above
Experimental: as §3

[18] = target: T3, recombinant soluble human MICA*009 …; assay: as above
Experimental: as §3

[19] = target: T4, recombinant soluble human MICA*004 …; assay: as above
Experimental: as §3

[20] = target: T1, recombinant soluble human MICA*008 …; assay: BLI (Octet) sandwich binning on soluble MICA allele 8, row antibody captured; competitor (second antibody): MICA.40
Experimental: as §2

koff [1]: 1.72 s⁻¹ | koff [2]: 0.0104 s⁻¹ | koff [3]: 2.15 s⁻¹ | koff [4]: 1.72 s⁻¹ | Kd [5]: 4.55 nM | Kd [6]: 147 nM | Kd [7]: 12.9 nM | Kd [8]: 6.89 nM | EC50 [9]: 9.26 nM and 13.8 nM | EC50 [10]: 0.856 nM and 2.38 nM | EC50 [11]: 8.16 nM and 21.6 nM
B1: 16A5 (antibody, V domains shown)
VH: QVQLVESGGDVVQPGRSLRLSCAASGFTFSNYNIHWVRQAPGKGLEWVAVIRYDGINKYYADSVKGRFIISRDNSKNTLYLQMNSLRAEDTAVYYCASGPPDAFNIWGQGTMVTVSS
VL: AIQLTQSPSSLSASVGDRVTITCRASQGISSALAWYQQKPGKVPKSLIYDASSLESGVPSRFSGSGSGTDFTLTISSLQPEDFATYYCQQFNSYPITFGQGTRLEIK
notes: Hybridoma antibody; #1 and #2 are two hybridoma lines from the same clone; also called 16A5 (#1); 16A5 (#2)

simultaneous binding (0 = no, 1 = yes) [12]: 0 | simultaneous binding (0 = no, 1 = yes) [13]: 0 | simultaneous binding (0 = no, 1 = yes) [14]: 0 | simultaneous binding (0 = no, 1 = yes) [15]: 1 | Kd [16]: 130 nM | koff [16]: 0.078 s⁻¹ | kon [16]: 600000 M⁻¹ s⁻¹ | Kd [17]: 123 nM | koff [17]: 0.127 s⁻¹ | kon [17]: 1.03e+06 M⁻¹ s⁻¹ | Kd [18]: 126 nM | koff [18]: 0.0502 s⁻¹ | kon [18]: 397000 M⁻¹ s⁻¹ | Kd [19]: 104 nM | koff [19]: 0.0426 s⁻¹ | kon [19]: 410000 M⁻¹ s⁻¹ | simultaneous binding (0 = no, 1 = yes) [20]: 0
B2: MICA.38 (antibody, V domains shown)
VH: EVQLVESGGGLVQPGGSLRLSCAASGFTFSTYSMNWVRQAPGKGLEWVSYISYRSRTIYYADSVKGRFTISRDNARNSLYLQMNSLRDEDTAVYYCARWGYGSGGFDYWGQGTLVTVSS
VL: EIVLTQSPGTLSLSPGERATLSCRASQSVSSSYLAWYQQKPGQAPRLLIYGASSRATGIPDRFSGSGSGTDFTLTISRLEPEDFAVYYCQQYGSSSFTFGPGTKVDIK
notes: MICA.2 with a Ser inserted between residues 95 and 96 in the light chain; also called MICA.38_3F5_S95k
